Assay results reported in publication PMC6343778 (mAbs, 2018).

T1: human MICA*008 α3 domain with a C-terminal His8 (Homo sapiens, MICA*008)
T1 chain: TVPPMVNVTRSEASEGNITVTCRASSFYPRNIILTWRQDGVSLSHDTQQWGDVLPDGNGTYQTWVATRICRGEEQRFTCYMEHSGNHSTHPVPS


Tests used:
[1] = differential scanning fluorimetry; conditions: glycan gained; control: wild-type HER2 ECD alone or human IgG1 Fc alone
[2] = molecular target: T2, human MICB*005 α3 domain with a C-terminal His8 (Homo sapiens, MICB*005, UniProt Q29980); assay: SPR
[3] = molecular target: T3, human MICA*002 α3 domain with a C-terminal His8 (Homo sapiens, MICA*002, UniProt Q29983); assay: SPR
[4] = molecular target: T4, human MICA*004 α3 domain with a C-terminal His8 (Homo sapiens, MICA*004, UniProt Q29983); assay: SPR
[5] = molecular target: T2, human MICB*005 α3 domain with a …; assay: cell-based or functional assay
[6] = molecular target: T1, human MICA*008 α3 domain with a …; assay: SPR
[7] = molecular target: T1, human MICA*008 α3 domain with a …; assay: cell-based or functional assay
[8] = molecular target: T3, human MICA*002 α3 domain with a …; assay: cell-based or functional assay
[9] = molecular target: T4, human MICA*004 α3 domain with a …; assay: cell-based or functional assay

Molecule | Kd [2] | Kd [3] | Kd [4] | EC50 of inhibition of MICB*005 shedding from the HCC1534 cell line [5] | Max % inhibition of MICB*005 shedding from the HCC1534 cell line [5] | Kd [6] | EC50 of inhibition of MICA*008 shedding from the MEL-JUSO cell line [7] | EC50 of inhibition of MICA*002 shedding from the PANC1 cell line [8] | EC50 of inhibition of MICA*004 shedding from the HCC1534 cell line [9] | Max % inhibition of MICA*004 shedding from the HCC1534 cell line [9] | stability_or_folding [1]
HER2 ECD: S310N |  |  |  |  |  |  |  |  |  |  | no change
HER2 ECD: V308N |  |  |  |  |  |  |  |  |  |  | no change
HER2 ECD: K333N |  |  |  |  |  |  |  |  |  |  | no change
anti-MICA/B antibody 1D5 (hybridoma-derived mouse antibody) (antibody, V domains shown) VH: EIQLQQSGPELVKPGASVKVSCKASGYAFTSQNIYWVKQSHGKSLEWIGYIEPYNVVPMYNPKFKGKATLTVDKSSSSAYIHLNSLTSEDSAIYYCARSGSSNFDYWGQGTTLTVSS VL: EIILTQSPTTMAASPGEKITITCSASSSISSHYLHWYQQKSGFSPKLLIYRTSNLASGVPARFSGSGSGTSYSLTIGTMEAEDVATYYCQQGSSLPLTFGAGTKLEIK | 1.09 nM | 0.675 nM | 0.486 nM | 0.0386 µg/mL | 59% | 0.42 nM | 0.0207 µg/mL | 0.0341 µg/mL | 0.0136 µg/mL | 65% | 

Continued, in another order:

Kd [2] | Kd [3] | Kd [4] | EC50 of inhibition of MICB*005 shedding from the HCC1534 cell line [5] | Max % inhibition of MICB*005 shedding from the HCC1534 cell line [5] | Kd [6] | EC50 of inhibition of MICA*008 shedding from the MEL-JUSO cell line [7] | EC50 of inhibition of MICA*002 shedding from the PANC1 cell line [8] | EC50 of inhibition of MICA*004 shedding from the HCC1534 cell line [9] | Max % inhibition of MICA*004 shedding from the HCC1534 cell line [9] | Molecule | stability_or_folding [1]
5.75 nM | 2.96 nM | 8.42 nM | 0.0724 µg/mL | 58% |  |  |  |  |  | anti-MICA/B antibody 6E1 (hybridoma-derived mouse antibody) (antibody, V domains shown) VH: QGQMQQSGAELVKPGASVKLSCKTSGFTFSDNYISWLKQKPGQSLEWIAWIYAGTGGSSYNQKFRDKAQLTVDTSSRTAYMQLSSLTTEDSAIYYCARHDYYGTSGAWFAYWGRGTLVTVSA VL: DVLMTQTPLSLPVSLGDQASISCRSSQHIVHSNENTYLEWYLQKPGQSPKLLIYKVSNRFSGVPDRFSGSGSGTDFTLKISRVEAEDLGVYYCFQGSHVPWTFGGGTKLEIK | 
0.968 nM | 0.499 nM | 1.55 nM | 0.0349 µg/mL | 76% | 0.94 nM | 0.794 µg/mL | 0.418 µg/mL | 0.599 µg/mL | 56% | anti-MICA/B antibody 13A9 (hybridoma-derived mouse antibody) (antibody, V domains shown) VH: QVQLQQSGAELVRPGTSVKVSCKASGYAFTNYLIEWVKQRPGQGLEWIGAINPGSGATNYNEKFKDKARLTADKSSNTAYLQFSSLTSDDSAVYFCARFLGNYFDNWGQGATLTVSS VL: DIQMTQSPASLSASVGETVTITCRASGNIHSYLAWYQQKQGKSPQLLVYYAETLADGVPSRFSGRGSGTQYSLKINSLQPEDFGSYFCQQFWTTPYTFGGGTKVEIK | 
